From US20250042957A1 (Molecular Partners, published 2025)

T1: scCD3εγ
T1 chain 1: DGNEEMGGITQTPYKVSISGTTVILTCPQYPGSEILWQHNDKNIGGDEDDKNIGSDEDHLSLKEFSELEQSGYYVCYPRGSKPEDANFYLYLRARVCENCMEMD
T1 chain 2: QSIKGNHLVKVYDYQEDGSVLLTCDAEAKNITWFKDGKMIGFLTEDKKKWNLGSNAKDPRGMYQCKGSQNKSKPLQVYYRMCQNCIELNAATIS

T2: CD3-specific binding domain (SEQ ID NO: 3) (biotinylated when used as immobilized SPR ligand (site not stated))
T2 construct: also called α-CD3 DARPin
T2 chain: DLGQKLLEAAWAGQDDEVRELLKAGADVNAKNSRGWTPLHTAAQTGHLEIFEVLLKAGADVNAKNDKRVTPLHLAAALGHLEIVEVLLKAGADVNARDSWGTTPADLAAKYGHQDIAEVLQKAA


Tests used:
VEGF165 [1] = target: T3, VEGF165 (UniProt P15692-4 27-191, biotinylated in the ELISA of Example 4 (site not stated)); experiment: ELISA: plate-bound biotinylated VEGF165, His-tagged construct titrated, no soluble VEGF, anti-His-HRP detection
T3 construct: also called biotinylated VEGF165; soluble VEGF

scCD3εγ [2] = target: T1, scCD3εγ; experiment: ELISA on scCD3εγ, DARPin titrated
scCD3εγ [3] = target: T1, scCD3εγ; experiment: SPR, bio-scCD3εγ coated on NAD chip, DARPin 333.33-4.11 nM
VEGF165 [4] = target: T3, VEGF165; experiment: SPR (ProteOn), VEGF165 immobilized, multi-trace 50-0.195 nM, 25 C
[5] = target: T2, CD3-specific binding domain (SEQ ID NO: …); experiment: SPR; KD on CD3-specific binding domain (Ligand1) divided by KD on VEGF165 (Ligand2)
[6] = target: T2, CD3-specific binding domain (SEQ ID NO: …); experiment: SPR (ProteOn), biotinylated CD3-specific binding domain immobilized, multi-trace 50-0.195 nM, 25 C

T3 sequence (P15692 other isoform, or with tags, fused parts or gaps limits assumed): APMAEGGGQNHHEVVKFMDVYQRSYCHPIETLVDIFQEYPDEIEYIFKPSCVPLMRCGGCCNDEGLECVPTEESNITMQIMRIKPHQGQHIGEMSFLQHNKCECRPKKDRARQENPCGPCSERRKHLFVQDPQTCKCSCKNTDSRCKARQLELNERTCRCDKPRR

Binder	EC50 (read off the curve) (VEGF165 [1]) [nM]	EC50 (read off the curve) (scCD3εγ [2]) [nM]	Kd (scCD3εγ [3]) [nM]	Kd (VEGF165 [4]) [nM]	koff (VEGF165 [4]) [s⁻¹]	kon (VEGF165 [4]) [M⁻¹ s⁻¹]	KD ratio (Ligand1/Ligand2) [5]	Kd [6] [nM]	koff [6] [s⁻¹]	kon [6] [M⁻¹ s⁻¹]
2-in-1 DARPin 12 (SEQ ID NO: 7) (designed binder, N3C mono-domain; purified by its His-tag) DLDKKLLEAARAGQDDEVRILLKAGADVNAKDSTGWTPLHLAAPWGHPEIVEVLLKAGADVNAKDVYGWTPLHLAAAAGHLEIVEVLLKAGADVNAKDWLGWTPLHLAASHGHLEIVEVLLKAGADVNAQDKSGKTPADLAARAGHQDIAEVLQKAA				6.66	0.0106	1.59e+06	0.195	1.3	0.00081	624000
2-in-1 DARPin 11 (SEQ ID NO: 6) (designed binder, N3C mono-domain; purified by its His-tag) DLDKKLLEAARAGQDDEVRILLKAGADVNAKDSTGWTPLHLAAPWGHPEIVEVLLKAGADVNAKDVYGWTPLHIAAASGHLEIVEVLLKAGADVNAKDWLGWTPLHLAASHGHLEIVEVLLKAGADVNAQDKSGKTPADLAARAGHQDIAEVLQKAA				11.1	0.0153	1.38e+06	0.0865	0.96	0.00067	691000
2-in-1 DARPin 13 (SEQ ID NO: 8) (designed binder, N3C mono-domain; purified by its His-tag) DLDKKLLEAARAGQDDEVRILLKAGADVNAKDSTGWTPLHLAAPWGHPEIVEVLLKAGADVNAKDFYGWTPLHLAAAAGHLEIVEVLLKAGADVNAKDWLGWTPLHLAASHGHLEIVEVLLKAGADVNAQDKSGKTPADLAARAGHQDIAEVLQKAA				0.81	0.00268	3.29e+06	14.2	11.5	0.008	693000
2-in-1 DARPin 15 (SEQ ID NO: 9) (designed binder, N3C mono-domain; purified by its His-tag) DLDKKLLEAARAGQDDEVRILLKAGADVNAKDSTGWTPLHLAAPWGHPEIVEVLLKAGADVNAKDFQGWTPLHLAAAAGHLEIVEVLLKAGADVNAKDWLGWTPLHLAASHGHLEIVEVLLKAGADVNAQDKSGKTPADLAARAGHQDIAEVLQKAA				0.02	0.0001	4.11e+06	59100	1360	0.205	151000
2-in-1 DARPin 17 (SEQ ID NO: 10) (designed binder, N3C mono-domain; purified by its His-tag) DLGKKLLQAARAGQLDEVRELLKAGADVNAKDSTGWTPLHLAAPWGHPEIVEVLLKAGADVNAKDFQGWTPLHLAAAAGHLEIVEVLLKAGADVNAKDWLGWTPLHLAASHGHLEIVEVLLKAGADVNAQDKSGKTPADLAARAGHQDIAEVLQKAA				0.18	0.00085	4.63e+06	2180	392		
2-in-1 DARPin 20 (SEQ ID NO: 13) (designed binder, N4C mono-domain; purified by its His-tag) DLDKKLLEAARAGQDDEVRILLKAGADVNAKDSTGWTPLHLAAPWGHPEIVEVLLKAGADVNAKDFQGWTPLHLAAAAGHLEIVEVLLKAGADVNAKDVYGWTPLHLAAAAGHLEIVEVLLKAGADVNAKDWLGWTPLHLAASHGHLEIVEVLLKAGADVNAQDKSGKTPADLAARAGHQDIAEVLQKAA				0.69		1.29e+06	2.09	1.44	0.0005	350000
2-in-1 DARPin 18 (SEQ ID NO: 11) (designed binder, N4C mono-domain; purified by its His-tag) DLDKKLLEAARAGQDDEVRILLKAGADVNAKDSTGWTPLHLAAPWGHPEIVEVLLKAGADVNAKDFQGWTPLHLAAAAGHLEIVEVLLKAGADVNAKDVYGWTPLHIAAASGHLEIVEVLLKAGADVNAKDWLGWTPLHLAASHGHLEIVEVLLKAGADVNAQDKSGKTPADLAARAGHQDIAEVLQKAA				0.1	0.00012	1.16e+06	17	1.7	0.00087	514000
2-in-1 DARPin 19 (SEQ ID NO: 12) (designed binder, N4C mono-domain; purified by its His-tag) DLDKKLLEAARAGQDDEVRILLKAGADVNAKDSTGWTPLHLAAPWGHPEIVEVLLKAGADVNAKDFKGWTPLHLAAAAGHLEIVEVLLKAGADVNAKDVYGWTPLHLAAAAGHLEIVEVLLKAGADVNAKDWLGWTPLHLAASHGHLEIVEVLLKAGADVNAQDKSGKTPADLAARAGHQDIAEVLQKAA				68.5	0.0949	1.38e+06	0.00647	0.44	0.0002	450000

Results, then the binder that gave them:

EC50 (read off the curve) (VEGF165 [1]) [nM]	EC50 (read off the curve) (scCD3εγ [2]) [nM]	Kd (scCD3εγ [3]) [nM]	Kd (VEGF165 [4]) [nM]	koff (VEGF165 [4]) [s⁻¹]	kon (VEGF165 [4]) [M⁻¹ s⁻¹]	KD ratio (Ligand1/Ligand2) [5]	Kd [6] [nM]	koff [6] [s⁻¹]	kon [6] [M⁻¹ s⁻¹]	Binder
~10										Switchdrug DARPin 15-B (designed binder, also called 2-in-1 DARPin15 in Format B) MRGSHHHHHHGSDLDKKLLEAARAGQDDEVRILLKAGADVNAKDSTGWTPLHLAAPWGHPEIVEVLLKAGADVNAKDFQGWTPLHLAAAAGHLEIVEVLLKAGADVNAKDWLGWTPLHLAASHGHLEIVEVLLKAGADVNAQDKSGKTPADLAARAGHQDIAEVLQKAAGSPTPTPTTPTPTPTTPTPTPTGSDLGKKLLQAARAGQLDEVRELLKAGADVNAKDQYGRTPLHLAAIKGHLEIVEVLLKAGADVNAKDSLGYTPLHLAAVEGPLEIVEVLLKAGADVNAKDAYGQTPLHIAAAWGHLEIVEVLLKAVADVNAQDKSGKTPADLAARAGHQDIAEVLQKAAGSPTPTPTTPTPTPTTPTPTPTGSDLGQKLLEAAWAGQDDEVRELLKAGADVNAKNSRGWTPLHTAAQTGHLEIFEVLLKAGADVNAKNDKRVTPLHLAAALGHLEIVEVLLKAGADVNARDSWGTTPADLAAKYGHQDIAEVLQKAA
	~30	3.81								2-in-1 DARPin 23 (SEQ ID NO: 92) (designed binder, Family 2, from Parent nos 3 and 4; tag not specified) DLGKKLLQAARAGQLDEVRELLKAGADVNAKDSQGRTPLHLAAFAGHLEIVEVLLKAGADVNAKDHAGWTPLHLAAYAGHLEIVEVLVKAGADVNAKDTEGKTPLHIAAWFGHLEIVEVLLKAGADVNAKDKSGQTPLHLAAWAGHLEIVEVLLKAGADVNAKNSRGWTPLHTAAQTGHLEIFEVLLKAGADVNAKNDKRVTPLHLAAALGHLEIVEVLLKAGADVNARDSWGTTPADLAAKYGHQDIAEVLQKAA
	~10	4.67								2-in-1 DARPin 24 (SEQ ID NO: 93) (designed binder, Family 2, from Parent nos 3 and 4; tag not specified) DLGKKLLQAARAGQLDEVRELLKAGADVNAKDSQGRTPLHLAAFAGHLEIVEVLLKAGADVNAKDHAGWTPLHLAAYAGHLEIVEVLVKAGADVNAKDTEGKTPLHIAAWFGHLEIVEVLLKAGADVNAKDKSGKTPLHLAARAGHLEIVEVLLKAGADVNAKDNSGQTPLHEAAWAGHLEIVEVLLKAGADVNAKNSRGWTPLHTAAQTGHLEIFEVLLKAGADVNAKNDKRVTPLHLAAALGHLEIVEVLLKAGADVNARDSWGTTPADLAAKYGHQDIAEVLQKAA
~20										Switchdrug DARPin 15-A (designed binder, also called 2-in-1 DARPin15 in Format A) MRGSHHHHHHGSDLGKKLLQAARAGQLDEVRELLKAGADVNAKDQYGRTPLHLAAIKGHLEIVEVLLKAGADVNAKDSLGYTPLHLAAVEGPLEIVEVLLKAGADVNAKDAYGQTPLHIAAAWGHLEIVEVLLKAVADVNAQDKSGKTPADLAARAGHQDIAEVLQKAAGSPTPTPTTPTPTPTTPTPTPTGSDLGQKLLEAAWAGQDDEVRELLKAGADVNAKNSRGWTPLHTAAQTGHLEIFEVLLKAGADVNAKNDKRVTPLHLAAALGHLEIVEVLLKAGADVNARDSWGTTPADLAAKYGHQDIAEVLQKAAGSPTPTPTTPTPTPTTPTPTPTGSDLDKKLLEAARAGQDDEVRILLKAGADVNAKDSTGWTPLHLAAPWGHPEIVEVLLKAGADVNAKDFQGWTPLHLAAAAGHLEIVEVLLKAGADVNAKDWLGWTPLHLAASHGHLEIVEVLLKAGADVNAQDKSGKTPADLAARAGHQDIAEVLQKAA
